According to paper PMC9605866, “Structures of the TMC-1 complex illuminate mechanosensory transduction” (Nature, 2022):

B1: transmembrane channel-like protein 1 (TMC-1) with C-terminal mVenus and 3×Flag tag, from tmc-1::mVenus knock-in worms (natural protein, C. elegans, UniProt D3KZG3 1-1285, looked up)
chain: MQEAARRASLRKEHTPTNEKFGDLSKQDSLGERASSKLTLDDELYDILYAFGETDAFINKGDKQRETDEDGNPLTRQALLERIRQKKEVIGKLRCQAWSMTRKRRTLKLAQKYLEQHESKVSRSHLYMEEMRKRARLMKRSFSNFKTYLIPWESKIKRIESHFGSVVSSYFTFLRWIVFVNIMITLIALVFVVLPETLADSVANEGRFNRTKTRKQIPANERVHADELAVVWHYDGYLRYSPLFYGYYSDDPFLGNKIKYALPLAYFMVTLTIFAYSFFAILRKMAANARMSKLSGSKAEQYIFNWKLFTGWDYTIGNSETASNTVMAVVIKLRESIADIKKDAHGKFRLLQFSLRVFANIIICAMLGFSIYCIIFAVQKSQVQDDGNLFTKNQVPSVVSTITHVFPMIFDLIGKMENYHPRTALRAHLGRVLILYTVNYITLIFALFEKMTALRDRVNSTSTSSSHRTKRQQGGWNPNMQRPPPYASRAEVRQMSDFLAANTRRFQTVSQRTTRSVTTPFTVAPQFGPFNVNNPNAVFHNGTHSTSFESQILGPKALPIFTPPPRKYPGFTPGNVGQQFGGPDFPRNQVYTKSTPLPRVRTKPPWVYTTTHPPLVQNRAMTTTMSKSAKKGNSKNLDDDILLSNETIQMSEAALRRNHDGHNNDICWETIIGQEIVKLVTMDLIFTILSILVIDLFRGLWIKYCSSWWCWDIETTFPEYGEFKVAENVLHIINNQGMIWLGLFFAPLLPAINNIKLIILMYIRGWAVMTCNVPAREIFRASRSSNFYLGILLIWLLLCTLPVGFVIASMSPSRSCGPFARYQHFYTVVTREIEKRVDQTVLSYIRHIASPGVVIPIILFLILIIYFLFSLVRGLREANTDLQAQLVHERTEEKKKIFELAGGKKNKFEKDRDKKRSNDYIPLIEQRRREPWRQYHEMEADHALASDSSEESDINEDEDDERQPLTAYPLRAIETPPETLQVTAFHPSLGSLIENREMEDEESASGDQLPMIHKSVSFQGPSHMQMRQSISTESCSQISRSAIQVATPEEIRALLRPYLEAKYGIPYQHGIKSFPIDVHTPPNNTPSRRSSKYNSFVSLYEHTRDDHKNFVASTIKETDEDPGKSDKKQTSSKDVAPDFMPWPSADEARALREKMKSKTPLMLTKTTVEEKPKGGKSSESEFRPPVPIHRKYNIQTTEEENEEEETDSAPESSKKRFRISVSPTKTIAPASASRAQHKIVSQASSSSSIPHGRQPDPNKKASLVLPPLRAPRVQFDEDDSPRQID
notes: TMC-1, C. elegans, endogenous gene (Wormbase T13G4.3.1); mVenus-3×Flag inserted immediately before the stop codon, PreScission (3C) site between the C terminus of TMC-1 and mVenus; residues M1 to D1285; that sample was afterwards eluted by 3C cleavage and run on SEC) and as imaged in SiMPull (Flag peptide elution, mVenus kept); also called TMC-1-mVenus-3×Flag; mVenus-tagged TMC-1; source: …
B2: transmembrane channel-like protein 1 (TMC-1), native, after 3C protease elution (natural protein, C. elegans, UniProt D3KZG3 1-1285, looked up)
chain: B1 chain
modifications: N-glycan at N209
notes: TMC-1, C. elegans, endogenous gene (Wormbase T13G4.3.1); residues M1 to D1285; not modelled: M1-P73, S460-N663, L886-D1285; Residues of the 3C site may remain at the C terminus after cleavage; Two copies stand in the complex (two-fold symmetric dimer); also called TMC-1 subunit; TMC-1 protomer; source: endogenous tmc-1 locus, tmc-1::mVenus knock-in worms; purified (anti-Flag M2 resin, 3C protease …)

Legend:
[1] = target: the molecule itself; assay: single-molecule pulldown (SiMPull) with photobleaching step counting; SEC-purified mVenus-tagged TMC-1 complex (Flag peptide elution) diluted 1:200, captured on biotinylated anti-GFP nanobody on streptavidin/PEG slides, TIRF; 20 mM Tris pH 8.0, 150 mM NaCl, 0.02% GDN, 3 mM CaCl2; 600 molecules from 3 movies
[2] = target: the molecule itself; assay: cryo-EM structure; native TMC-1 complex in GDN, 20 mM Tris-Cl pH 8.5, 150 mM NaCl, 3 mM CaCl2, on 2 nm carbon-coated grids; one dataset, three classes: expanded, contracted, with ARRD-6

Protein	stoichiometry N [1]	stoichiometry N [2]
B1	2	–
B2	–	2
